Experiment [1] deals with T1, human FcγRIIb extracellular domain, C-terminal His-tag (human, UniProt P31994 43-217).
T1 construct: also called FcgRIIb; not shown: His-tag added to the C-terminus
T1 sequence: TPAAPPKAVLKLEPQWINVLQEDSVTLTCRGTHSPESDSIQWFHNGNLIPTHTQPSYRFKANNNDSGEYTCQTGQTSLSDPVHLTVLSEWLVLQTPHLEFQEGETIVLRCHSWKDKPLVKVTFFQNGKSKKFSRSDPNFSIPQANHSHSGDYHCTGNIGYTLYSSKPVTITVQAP
Nature of the experiment: SPR; KD of SG1 divided by KD of variant.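 Further: relative to parent M103205H795-SG1 carrying the SG1 human heavy chain constant region.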 The procedure: (§1) The kinetic analysis of interactions between these antibodies and FcγR was carried out using BIACORE® T200 or BIACORE® 4000 (GE Healthcare). HBS-EP+ (GE Healthcare) was used as the running buffer, and the measurement temperature was set to 25° C. A chip produced by immobilizing Protein A. Protein A/G or mouse anti-human IgG kappa light chain (BD Biosciences) onto a Series S Sensor Chip CM4 or CM5 (GE Healthcare) by the amine-coupling method was used. […] After the measurement, the antibody captured on the chip was washed off by allowing reaction with 10 mM glycine-HCl, pH1.5 and 25 mM NaOH so that the chip was regenerated and used repeatedly. The sensorgrams obtained as measurement results were analyzed by the 1:1 Langmuir binding model using the BIACORE® Evaluation Software to calculate the binding rate constant ka (L/mol/s) and dissociation rate constant kd (l/s), and the dissociation constant KD (mol/L) was calculated from these values. […] Regarding such interactions, KD values were calculated using the following 1:1 binding model described in BIACORE® T100 Software Handbook BR1006-48 Edition AE.
(§2) Human FcγRIIb-enhanced Fc variants with anti-myostatin variable region were constructed and their affinity for human FcγRs was evaluated. […] In addition, substitutions (Q311R/D413K or […]) were also introduced. The variants were expressed using M103202L1045-SK1 as light chain and their affinity to human FcγRs was analyzed according to the method shown in Example 34.
(Surface plasmon resonance follows binding to a sensor surface in real time, without labels.)

Experiment [2] addresses T2, human FcγRIIIaV extracellular domain, C-terminal His-tag (human, UniProt P08637 17-208).
T2 construct: also called FcgRIIIaV; not shown: His-tag added to the C-terminus
Nature of the experiment: SPR; KD of SG1 divided by KD of variant.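 Further: relative to parent M103205H795-SG1 carrying the SG1 human heavy chain constant region.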 The procedure: as §1, §2

The target of experiment [3] is T3, human FcγRIIaR extracellular domain, C-terminal His-tag (human, UniProt P12318 34-217).
T3 construct: also called human FcγRIIa (type R); FcgRIIaR; not shown: His-tag added to the C-terminus
T3 chain: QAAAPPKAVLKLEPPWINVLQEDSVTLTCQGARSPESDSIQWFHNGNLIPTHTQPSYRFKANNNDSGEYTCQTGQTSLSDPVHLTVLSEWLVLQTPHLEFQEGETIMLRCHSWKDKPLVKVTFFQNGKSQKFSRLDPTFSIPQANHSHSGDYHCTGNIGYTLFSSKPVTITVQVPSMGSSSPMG
Nature of the experiment: SPR; KD of SG1 divided by KD of variant.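 Further: relative to parent M103205H795-SG1 carrying the SG1 human heavy chain constant region.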 The procedure:
as §1, §2

The target of experiment [4] is T4, human FcγRIIaH extracellular domain, C-terminal His-tag (human, UniProt P12318 34-217).
T4 construct: also called human FcγRIIa (type H); FcgRIIaH; not shown: His-tag added to the C-terminus
T4 sequence: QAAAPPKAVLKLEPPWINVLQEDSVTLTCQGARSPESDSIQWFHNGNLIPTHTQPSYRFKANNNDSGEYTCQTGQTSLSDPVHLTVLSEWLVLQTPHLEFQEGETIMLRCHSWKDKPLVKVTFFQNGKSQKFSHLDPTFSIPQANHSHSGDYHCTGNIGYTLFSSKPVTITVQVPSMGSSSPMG
The experiment is described as follows: SPR; KD of SG1 divided by KD of variant.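 Further: relative to parent M103205H795-SG1 carrying the SG1 human heavy chain constant region.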 The method, then:
as §1, §2

The target in experiment [5] is T1, human FcγRIIb extracellular domain, …. Nature of the experiment: SPR (BIACORE), antibody captured, soluble FcgR as analyte, 25C. The method, then: as §1, §2
Experiment [6] addresses T2, human FcγRIIIaV extracellular domain, …. Described as above. The procedure: as §1, §2
Experiment [7] concerns the target T3, human FcγRIIaR extracellular domain, …. Described as above. The procedure:
as §1, §2

Experiment [8] concerns the target T4, human FcγRIIaH extracellular domain, …. Described as above. The method, then: as §1, §2

T2 sequence (P08637 17-208 F176V): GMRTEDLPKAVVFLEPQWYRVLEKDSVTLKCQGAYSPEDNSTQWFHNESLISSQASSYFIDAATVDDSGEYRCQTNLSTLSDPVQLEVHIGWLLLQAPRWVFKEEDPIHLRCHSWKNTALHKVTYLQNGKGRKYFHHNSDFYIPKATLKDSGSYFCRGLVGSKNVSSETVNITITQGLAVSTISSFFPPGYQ

B1: MS103240H795-TT20/M103202L1045-SK1 (antibody, human IgG1, kappa)
heavy: QVQLVESGGGLVQPGGSLRLSCAVSGIDLSHDDISWVRQAPGKGLEWVSIISYAGSTYYASWAKGRLTISKDTSKNQVVLTMTNMDPVDTATYYCARGVPAYSHGGDLWGQGTLVTVSSASTKGPSVFPLAPSSKSTSGGTAALGCLVKDYFPEPVTVSWNSGALTSGVHTFPAVLQSSGLYSLSSVVTVPSSSLGTQTYICNVNHKPSNTKVDKKVEPKSCDKTHTCPPCPAPELLGGDSVFLFPPKPKDVLMISRTPEVTCVVVDVSHEDPEVKFNWYVDGVEVHNAKTKPREEQYNSTYRVVSVLPVLHRDWLNGKEYKCKVSNKALPKPIEKTISKAKGQRREPQVYTLPPSREEMTKNQVSLTCLVKGFYPSDIAVEWESNGQPENNYKTTPPVLDSDGSFFLYSKLTVDKSRWQQGNVFSCSVMHEALHNHYTQKSLSLSP
light: DIVMTQSPATLSLSPGERATLSCTTSQSVYHENWLSWFQQKPGQPPKLLIYWASTLAYGVPSRFSGSGSGTDFTLTISSLQPEDAATYYCAGGYGGGRYAFGQGTKVEIKRTVAAPSVFIFPPSDEQLKSGTASVVCLLNNFYPREAKVQWKVDNALQSGNSQESVTEQDSKDSTYSLSSTLTLSKADYEKHKVYACEVTHQGLSSPVTKSFNRGEC
notes: CH = SG1 with P238D/T250V/T307P/Q311R/A330K/P343R (EU numbering)
On to B1, for which the “KD fold (SG1 = 1)” value in experiment [1] is 4.1 fold; in experiment [2], 0.01 fold; in experiment [3], 0.04 fold; in experiment [4], 0.008 fold. For the same molecule, the Kd (commonly the equilibrium constant for the complex coming apart) in experiment [5] was 1.4 µM; in experiment [6] it was 84 µM; in experiment [7] it was 28 µM; in experiment [8], 91 µM.

B2: MS103240H795-TT21/M103202L1045-SK1 (antibody, human IgG1, kappa)
heavy: QVQLVESGGGLVQPGGSLRLSCAVSGIDLSHDDISWVRQAPGKGLEWVSIISYAGSTYYASWAKGRLTISKDTSKNQVVLTMTNMDPVDTATYYCARGVPAYSHGGDLWGQGTLVTVSSASTKGPSVFPLAPSSKSTSGGTAALGCLVKDYFPEPVTVSWNSGALTSGVHTFPAVLQSSGLYSLSSVVTVPSSSLGTQTYICNVNHKPSNTKVDKKVEPKSCDKTHTCPPCPAPELLGGDSVFLFPPKPKDVLMISRTPEVTCVVVDVSHEDPEVKFNWYVDGVEVHNAKTKPREEQYNSTYRVVSVLPVLHRDWLNGKEYKCKVSNKALPKPIEKTISKAKGQPREPQVYTLPPSREEMTKNQVSLTCLVKGFYPSDIAVEWESNGQPENNYKTTPPVLDSDGSFFLYSKLTVKKSRWQQGNVFSCSVMHEALHNHYTQKSLSLSP
light: DIVMTQSPATLSLSPGERATLSCTTSQSVYHENWLSWFQQKPGQPPKLLIYWASTLAYGVPSRFSGSGSGTDFTLTISSLQPEDAATYYCAGGYGGGRYAFGQGTKVEIKRTVAAPSVFIFPPSDEQLKSGTASVVCLLNNFYPREAKVQWKVDNALQSGNSQESVTEQDSKDSTYSLSSTLTLSKADYEKHKVYACEVTHQGLSSPVTKSFNRGEC
notes: CH = SG1 with P238D/T250V/T307P/Q311R/A330K/D413K (EU numbering)
Regarding B2, the “KD fold (SG1 = 1)” value in experiment [1] worked out at 4.5 fold; in experiment [2], 0.01 fold; in experiment [3], 0.06 fold; in experiment [4], 0.013 fold. Moreover, the equilibrium dissociation constant (Kd) in experiment [5] was determined as 1.3 µM; in experiment [6], 85 µM; in experiment [7] it was 20 µM; in experiment [8] it was 56 µM.

B3: MS103240H795-TT24/M103202L1045-SK1 (antibody, human IgG1, kappa)
heavy: QVQLVESGGGLVQPGGSLRLSCAVSGIDLSHDDISWVRQAPGKGLEWVSIISYAGSTYYASWAKGRLTISKDTSKNQVVLTMTNMDPVDTATYYCARGVPAYSHGGDLWGQGTLVTVSSASTKGPSVFPLAPSSKSTSGGTAALGCLVKDYFPEPVTVSWNSGALTSGVHTFPAVLQSSGLYSLSSVVTVPSSSLGTQTYICNVNHKPSNTKVDKKVEPKSCDKTHTCPPCPAPELLGGDSVFLFPPKPKDVLMISRTPEVTCVVVDVAHEDPEVKFNWYVDGVEVHNAKTKPREEQYNSTYRVVSVLPVLHRDWLNGKEYKCKVSNKALPKPIEKTISKAKGQRREPQVYTLPPSREEMTKNQVSLTCLVKGFYPSDIAVEWESNGQPENNYKTTPPVLDSDGSFFLYSKLTVDKSRWQQGNVFSCSVMHEALHNHYTQKSLSLSP
light: DIVMTQSPATLSLSPGERATLSCTTSQSVYHENWLSWFQQKPGQPPKLLIYWASTLAYGVPSRFSGSGSGTDFTLTISSLQPEDAATYYCAGGYGGGRYAFGQGTKVEIKRTVAAPSVFIFPPSDEQLKSGTASVVCLLNNFYPREAKVQWKVDNALQSGNSQESVTEQDSKDSTYSLSSTLTLSKADYEKHKVYACEVTHQGLSSPVTKSFNRGEC
notes: CH = SG1 with P238D/T250V/S267A/T307P/Q311R/A330K/P343R (EU numbering)
In the case of B3, the “KD fold (SG1 = 1)” value came to 4.8 fold in experiment [1], 0.003 fold in experiment [2], 0.08 fold in experiment [3] and 0.015 fold in experiment [4]. The Kd was 1.2 µM in experiment [5], 260 µM in experiment [6], 13 µM in experiment [7] and 49 µM in experiment [8].

B4: MS103240H795-TT23/M103202L1045-SK1 (antibody, human IgG1, kappa)
heavy: QVQLVESGGGLVQPGGSLRLSCAVSGIDLSHDDISWVRQAPGKGLEWVSIISYAGSTYYASWAKGRLTISKDTSKNQVVLTMTNMDPVDTATYYCARGVPAYSHGGDLWGQGTLVTVSSASTKGPSVFPLAPSSKSTSGGTAALGCLVKDYFPEPVTVSWNSGALTSGVHTFPAVLQSSGLYSLSSVVTVPSSSLGTQTYICNVNHKPSNTKVDKKVEPKSCDKTHTCPPCPAPELLGGDSVFLFPPKPKDVLMISRTPEVTCVVIDVSHEDPEVKFNWYVDGVEVHNAKTKPREEQYNSTYRVVSVLPVLHRDWLNGKEYKCKVSNKALPKPIEKTISKAKGQPREPQVYTLPPSREEMTKNQVSLTCLVKGFYPSDIAVEWESNGQPENNYKTTPPVLDSDGSFFLYSKLTVKKSRWQQGNVFSCSVMHEALHNHYTQKSLSLSP
light: DIVMTQSPATLSLSPGERATLSCTTSQSVYHENWLSWFQQKPGQPPKLLIYWASTLAYGVPSRFSGSGSGTDFTLTISSLQPEDAATYYCAGGYGGGRYAFGQGTKVEIKRTVAAPSVFIFPPSDEQLKSGTASVVCLLNNFYPREAKVQWKVDNALQSGNSQESVTEQDSKDSTYSLSSTLTLSKADYEKHKVYACEVTHQGLSSPVTKSFNRGEC
notes: CH = SG1 with P238D/T250V/V264I/T307P/Q311R/A330K/D413K (EU numbering)
Take B4: the “KD fold (SG1 = 1)” value in experiment [1] stood at 10.5 fold; in experiment [2] it was 0.002 fold; in experiment [3], 0.02 fold; in experiment [4], 0.007 fold. Besides, the equilibrium dissociation constant (Kd) amounted to 0.55 µM in experiment [5], 450 µM in experiment [6], 48 µM in experiment [7] and 100 µM in experiment [8].

B5: MS103240H795-TT22/M103202L1045-SK1 (antibody, human IgG1, kappa)
heavy: QVQLVESGGGLVQPGGSLRLSCAVSGIDLSHDDISWVRQAPGKGLEWVSIISYAGSTYYASWAKGRLTISKDTSKNQVVLTMTNMDPVDTATYYCARGVPAYSHGGDLWGQGTLVTVSSASTKGPSVFPLAPSSKSTSGGTAALGCLVKDYFPEPVTVSWNSGALTSGVHTFPAVLQSSGLYSLSSVVTVPSSSLGTQTYICNVNHKPSNTKVDKKVEPKSCDKTHTCPPCPAPELLGGDSVFLFPPKPKDVLMISRTPEVTCVVIDVSHEDPEVKFNWYVDGVEVHNAKTKPREEQYNSTYRVVSVLPVLHRDWLNGKEYKCKVSNKALPKPIEKTISKAKGQRREPQVYTLPPSREEMTKNQVSLTCLVKGFYPSDIAVEWESNGQPENNYKTTPPVLDSDGSFFLYSKLTVDKSRWQQGNVFSCSVMHEALHNHYTQKSLSLSP
light: DIVMTQSPATLSLSPGERATLSCTTSQSVYHENWLSWFQQKPGQPPKLLIYWASTLAYGVPSRFSGSGSGTDFTLTISSLQPEDAATYYCAGGYGGGRYAFGQGTKVEIKRTVAAPSVFIFPPSDEQLKSGTASVVCLLNNFYPREAKVQWKVDNALQSGNSQESVTEQDSKDSTYSLSSTLTLSKADYEKHKVYACEVTHQGLSSPVTKSFNRGEC
notes: CH = SG1 with P238D/T250V/V264I/T307P/Q311R/A330K/P343R (EU numbering)
For the molecule B5, the “KD fold (SG1 = 1)” value was found to be 9.8 fold in experiment [1], 0.011 fold in experiment [2], 0.05 fold in experiment [3] and 0.013 fold in experiment [4]. Also, the equilibrium dissociation constant (Kd) in experiment [5] came to 0.59 µM; in experiment [6], 72 µM; in experiment [7], 21 µM; in experiment [8], 60 µM.
